# Source: patent US20240252592A1 (TIANJIN INSTITUTE OF PHARMACEUTICAL RESEARCH, published 2024)
# Positions count from the first letter of the chain named. Numbered stars: 1 amine (or outer) side, 2 acyl side, 3 side chain; on linkers, the order of the positions; unused ones are H or OH. Square brackets hold non-standard residues; d marks the D form. Side chains are listed from the residue outwards. Ends that are not written are not given here. * marks the point of attachment. C20 diacid = O=C(O)CCCCCCCCCCCCCCCCCCC(=O)*; C18 diacid = O=C(O)CCCCCCCCCCCCCCCCC(=O)*; γGlu = O=C(O)[C@H](CCC(=O)[*:2])N[*:1]; Palmitoyl = CCCCCCCCCCCCCCCC(=O)*; AEEA = NCCOCCOCC(=O)O; Aib = CC(C)(N)C(=O)O
# B1: Compound 3 (peptide)
# peptide: HXQGTFTSDKSKYLEERAAKEFVAWLKEGGPSSG
# HELM: PEPTIDE1{H.[Aib].Q.G.T.F.T.S.D.K.S.K.Y.L.E.E.R.A.A.K.E.F.V.A.W.L.K.E.G.G.P.S.S.G.[am]}|PEPTIDE2{[CCCCCCCCCCCCCCCC(=O)[*:2]].[gGlu].[gGlu]}$PEPTIDE1,PEPTIDE2,10:R3-3:R2$$$V2.0; N-terminus assumed
# SMILES: CCCCCCCCCCCCCCCC(=O)N[C@@H](CCC(=O)N[C@@H](CCC(=O)NCCCC[C@H](NC(=O)[C@H](CC(=O)O)NC(=O)[C@H](CO)NC(=O)[C@@H](NC(=O)[C@H](Cc1ccccc1)NC(=O)[C@@H](NC(=O)CNC(=O)[C@H](CCC(N)=O)NC(=O)C(C)(C)NC(=O)[C@@H](N)Cc1c[nH]cn1)[C@@H](C)O)[C@@H](C)O)C(=O)N[C@@H](CO)C(=O)N[C@@H](CCCCN)C(=O)N[C@@H](Cc1ccc(O)cc1)C(=O)N[C@@H](CC(C)C)C(=O)N[C@@H](CCC(=O)O)C(=O)N[C@@H](CCC(=O)O)C(=O)N[C@@H](CCCNC(=N)N)C(=O)N[C@@H](C)C(=O)N[C@@H](C)C(=O)N[C@@H](CCCCN)C(=O)N[C@@H](CCC(=O)O)C(=O)N[C@@H](Cc1ccccc1)C(=O)N[C@H](C(=O)N[C@@H](C)C(=O)N[C@@H](Cc1c[nH]c2ccccc12)C(=O)N[C@@H](CC(C)C)C(=O)N[C@@H](CCCCN)C(=O)N[C@@H](CCC(=O)O)C(=O)NCC(=O)NCC(=O)N1CCC[C@H]1C(=O)N[C@@H](CO)C(=O)N[C@@H](CO)C(=O)NCC(N)=O)C(C)C)C(=O)O)C(=O)O
# B2: Compound 4 (peptide)
# peptide: B1 peptide with E15X, A24X, K27E, E28A
# HELM: PEPTIDE1{H.[Aib].Q.G.T.F.T.S.D.K.S.K.Y.L.E.E.R.A.A.K.E.F.V.A.W.L.E.A.G.G.P.S.S.G.[am]}|PEPTIDE2{[CCCCCCCCCCCCCCCC(=O)[*:2]].[gGlu].[gGlu]}$PEPTIDE1,PEPTIDE2,10:R3-3:R2$$$V2.0; N-terminus assumed
# SMILES: CCCCCCCCCCCCCCCC(=O)N[C@@H](CCC(=O)N[C@@H](CCC(=O)NCCCC[C@H](NC(=O)[C@H](CC(=O)O)NC(=O)[C@H](CO)NC(=O)[C@@H](NC(=O)[C@H](Cc1ccccc1)NC(=O)[C@@H](NC(=O)CNC(=O)[C@H](CCC(N)=O)NC(=O)C(C)(C)NC(=O)[C@@H](N)Cc1c[nH]cn1)[C@@H](C)O)[C@@H](C)O)C(=O)N[C@@H](CO)C(=O)N[C@@H](CCCCN)C(=O)N[C@@H](Cc1ccc(O)cc1)C(=O)N[C@@H](CC(C)C)C(=O)N[C@@H](CCC(=O)O)C(=O)N[C@@H](CCC(=O)O)C(=O)N[C@@H](CCCNC(=N)N)C(=O)N[C@@H](C)C(=O)N[C@@H](C)C(=O)N[C@@H](CCCCN)C(=O)N[C@@H](CCC(=O)O)C(=O)N[C@@H](Cc1ccccc1)C(=O)N[C@H](C(=O)N[C@@H](C)C(=O)N[C@@H](Cc1c[nH]c2ccccc12)C(=O)N[C@@H](CC(C)C)C(=O)N[C@@H](CCC(=O)O)C(=O)N[C@@H](C)C(=O)NCC(=O)NCC(=O)N1CCC[C@H]1C(=O)N[C@@H](CO)C(=O)N[C@@H](CO)C(=O)NCC(N)=O)C(C)C)C(=O)O)C(=O)O
# B3: Compound 2 (peptide)
# peptide: B1 peptide with E15X, A24X, K27E, E28A
# HELM: PEPTIDE1{H.[Aib].Q.G.T.F.T.S.D.K.S.K.Y.L.E.E.R.A.A.K.E.F.V.E.W.L.E.A.G.G.P.S.S.G.[am]}|PEPTIDE2{[CCCCCCCCCCCCCCCC(=O)[*:2]].[gGlu].[gGlu]}$PEPTIDE1,PEPTIDE2,10:R3-3:R2$$$V2.0; N-terminus assumed
# SMILES: CCCCCCCCCCCCCCCC(=O)N[C@@H](CCC(=O)N[C@@H](CCC(=O)NCCCC[C@H](NC(=O)[C@H](CC(=O)O)NC(=O)[C@H](CO)NC(=O)[C@@H](NC(=O)[C@H](Cc1ccccc1)NC(=O)[C@@H](NC(=O)CNC(=O)[C@H](CCC(N)=O)NC(=O)C(C)(C)NC(=O)[C@@H](N)Cc1c[nH]cn1)[C@@H](C)O)[C@@H](C)O)C(=O)N[C@@H](CO)C(=O)N[C@@H](CCCCN)C(=O)N[C@@H](Cc1ccc(O)cc1)C(=O)N[C@@H](CC(C)C)C(=O)N[C@@H](CCC(=O)O)C(=O)N[C@@H](CCC(=O)O)C(=O)N[C@@H](CCCNC(=N)N)C(=O)N[C@@H](C)C(=O)N[C@@H](C)C(=O)N[C@@H](CCCCN)C(=O)N[C@@H](CCC(=O)O)C(=O)N[C@@H](Cc1ccccc1)C(=O)N[C@H](C(=O)N[C@@H](CCC(=O)O)C(=O)N[C@@H](Cc1c[nH]c2ccccc12)C(=O)N[C@@H](CC(C)C)C(=O)N[C@@H](CCC(=O)O)C(=O)N[C@@H](C)C(=O)NCC(=O)NCC(=O)N1CCC[C@H]1C(=O)N[C@@H](CO)C(=O)N[C@@H](CO)C(=O)NCC(N)=O)C(C)C)C(=O)O)C(=O)O
# B4: Compound 5 (peptide)
# peptide: HXQGTFTSDKSKYLXERAAKEFVXWLEGGPSSG
# HELM: PEPTIDE1{H.[Aib].Q.G.T.F.T.S.D.K.S.K.Y.L.E.E.R.A.A.K.E.F.V.E.W.L.E.G.G.P.S.S.G.[am]}|PEPTIDE2{[CCCCCCCCCCCCCCCC(=O)[*:2]].[gGlu].[gGlu]}$PEPTIDE1,PEPTIDE2,10:R3-3:R2$$$V2.0; N-terminus assumed
# SMILES: CCCCCCCCCCCCCCCC(=O)N[C@@H](CCC(=O)N[C@@H](CCC(=O)NCCCC[C@H](NC(=O)[C@H](CC(=O)O)NC(=O)[C@H](CO)NC(=O)[C@@H](NC(=O)[C@H](Cc1ccccc1)NC(=O)[C@@H](NC(=O)CNC(=O)[C@H](CCC(N)=O)NC(=O)C(C)(C)NC(=O)[C@@H](N)Cc1c[nH]cn1)[C@@H](C)O)[C@@H](C)O)C(=O)N[C@@H](CO)C(=O)N[C@@H](CCCCN)C(=O)N[C@@H](Cc1ccc(O)cc1)C(=O)N[C@@H](CC(C)C)C(=O)N[C@@H](CCC(=O)O)C(=O)N[C@@H](CCC(=O)O)C(=O)N[C@@H](CCCNC(=N)N)C(=O)N[C@@H](C)C(=O)N[C@@H](C)C(=O)N[C@@H](CCCCN)C(=O)N[C@@H](CCC(=O)O)C(=O)N[C@@H](Cc1ccccc1)C(=O)N[C@H](C(=O)N[C@@H](CCC(=O)O)C(=O)N[C@@H](Cc1c[nH]c2ccccc12)C(=O)N[C@@H](CC(C)C)C(=O)N[C@@H](CCC(=O)O)C(=O)NCC(=O)NCC(=O)N1CCC[C@H]1C(=O)N[C@@H](CO)C(=O)N[C@@H](CO)C(=O)NCC(N)=O)C(C)C)C(=O)O)C(=O)O
# B5: Compound 11 (peptide)
# peptide: HXQGTFTSDKSKYLXEKRAKEFIXWLEAGGPSSG
# HELM: PEPTIDE1{H.[Aib].Q.G.T.F.T.S.D.K.S.K.Y.L.E.E.K.R.A.K.E.F.I.E.W.L.E.A.G.G.P.S.S.G.[am]}|PEPTIDE2{[CCCCCCCCCCCCCCCC(=O)[*:2]].[gGlu].[gGlu]}$PEPTIDE1,PEPTIDE2,10:R3-3:R2$$$V2.0; N-terminus assumed
# SMILES: CCCCCCCCCCCCCCCC(=O)N[C@@H](CCC(=O)N[C@@H](CCC(=O)NCCCC[C@H](NC(=O)[C@H](CC(=O)O)NC(=O)[C@H](CO)NC(=O)[C@@H](NC(=O)[C@H](Cc1ccccc1)NC(=O)[C@@H](NC(=O)CNC(=O)[C@H](CCC(N)=O)NC(=O)C(C)(C)NC(=O)[C@@H](N)Cc1c[nH]cn1)[C@@H](C)O)[C@@H](C)O)C(=O)N[C@@H](CO)C(=O)N[C@@H](CCCCN)C(=O)N[C@@H](Cc1ccc(O)cc1)C(=O)N[C@@H](CC(C)C)C(=O)N[C@@H](CCC(=O)O)C(=O)N[C@@H](CCC(=O)O)C(=O)N[C@@H](CCCCN)C(=O)N[C@@H](CCCNC(=N)N)C(=O)N[C@@H](C)C(=O)N[C@@H](CCCCN)C(=O)N[C@@H](CCC(=O)O)C(=O)N[C@@H](Cc1ccccc1)C(=O)N[C@H](C(=O)N[C@@H](CCC(=O)O)C(=O)N[C@@H](Cc1c[nH]c2ccccc12)C(=O)N[C@@H](CC(C)C)C(=O)N[C@@H](CCC(=O)O)C(=O)N[C@@H](C)C(=O)NCC(=O)NCC(=O)N1CCC[C@H]1C(=O)N[C@@H](CO)C(=O)N[C@@H](CO)C(=O)NCC(N)=O)[C@@H](C)CC)C(=O)O)C(=O)O
# Assays:
# GC receptor = experiment: cell-based or functional assay
# human GLP-1 receptor = human GLP-1 receptor (human, UniProt P43220 24-463); experiment: cell-based or functional assay
Binder,EC50 of GC receptor mediated cAMP production (GC receptor) [nM],EC50 of GLP-1 receptor mediated cAMP production (human GLP-1 receptor) [nM]
H[Aib]QGTFTSDK([AEEA-AEEA-γGlu-C18 diacid])SKYLEERAAKEFIAWLEGGPSSG-NH2 (not fully specified; printed as HAibQGTFTSDK**SKYLEERAAKEFIAWLEGGPSSG-Amid) [Compound 6],0.052,
B1,0.1,20.8
B2,0.024,
B3,0.0352,
B4,,0.26
H[Aib]QGTFTSDK([γGlu-γGlu-Palmitoyl])SKYLEERAAKEFVEWLEGGPSSG-NH2 (not fully specified; printed as HAibQGTFTSDK*SKYLEERAAKEFVEWLEGGPSSG-Amid) [Compound 7],,0.72
H[Aib]QGTFTSDK([AEEA-AEEA-γGlu-C20 diacid])SKYLDERAAKEFIAWLEAGGPSSG-NH2 (not fully specified; printed as HAibQGTFTSDK***SKYLDERAAKEFIAWLEAGGPSSG-Amid) [Compound 77],0.076,
H[Aib]QGTFTSDK([AEEA-AEEA-γGlu-C20 diacid])SKYLDERAAKEFVAWLEAGGPSSG-NH2 (not fully specified; printed as HAibQGTFTSDK***SKYLDERAAKEFVAWLEAGGPSSG-Amid) [Compound 13],0.033,0.076
H[Aib]QGTFTSDK([AEEA-AEEA-γGlu-C18 diacid])SKYLDERAAKEFIAWLEGGPSSG-NH2 (not fully specified; printed as HAibQGTFTSDK**SKYLDERAAKEFIAWLEGGPSSG-Amid) [Compound 75],0.087,
B5,1.73,3.05
H[Aib]QGTFTSDK([AEEA-AEEA-γGlu-C20 diacid])SKYLEERAAKEFIAWLEAGGPSSG-NH2 (not fully specified; printed as HAibQGTFTSDK***SKYLEERAAKEFIAWLEAGGPSSG-Amid) [Compound 35],0.036,
